The assay has as its target T1, human α9α10 nAChR (Homo sapiens, UniProt Q9GZZ6+Q9UGM1).
T1 construct: expressed in transfected cells; host or cells: HEK293T
As to the kind of experiment: FLIPR calcium assay of HEK293T cells co-transfected with α9α10 nAChR and cDNA clones, response evoked by 200 μM ACh. The assay is classed as cell-based. As to conditions: 200 μM ACh; for FLIPR Response (Fold/Baseline): 180 s; for functional expression of co-transfected α9α10 nAChR in cDNA library screen: HEK293T, 20,000 cDNA clones. On the procedure:
Human embryonic kidney 293T (HEK293T) cells were cultured in high glucose DMEM medium supplemented with 10% FBS, sodium pyruvate and penicillin/streptomycin. Prior to transfection, cells were seeded at ˜80-90% confluence in 384-well fluorescence imaging plate reader (FLIPR) assay plates. After a 4 hour (hr) incubation, wells of cells were individually co-transfected with human α9α10 nAChR plus one of 20,000 clones from cDNA libraries encoding most all human proteins (Origene Technologies; Rockville, Md.; Broad Institute; Cambridge, Mass.) using Fugene HD (Promega; Madison, Wis.) according to the manufacture's protocol. After two days incubation, cells were washed three times with assay buffer (137 mM NaCl, 4 mM KCl, 2 mM CaCl2, 1 mM MgCl2, 5 mM glucose, 10 mM HEPES pH7.4) and loaded with Calcium5 dye (Molecular Devices; San Jose, Calif.) and 1.25 mM probenecid for 1 hr at room temperature (RT). After three washes, the plates were placed in the FLIPR stage.
To further characterize the regulation of α9α10 nAChR expression, HEK293T cells were co-transfected with α9α10 nAChR and each of CHAT, TMIE, TMEM100, TMEM132A, TMEM132C, TMEM132D, TMEM132E and TNFRSF10A individually and in combination (Table 2).

Where [1] appears, read: HEK293T co-transfected with α9α10 nAChR + CHAT plus the named gene.
The mark [2] stands for this setting: HEK293T co-transfected with α9α10 nAChR plus the named gene.

T1 sequence (Q9UGM1 23-479): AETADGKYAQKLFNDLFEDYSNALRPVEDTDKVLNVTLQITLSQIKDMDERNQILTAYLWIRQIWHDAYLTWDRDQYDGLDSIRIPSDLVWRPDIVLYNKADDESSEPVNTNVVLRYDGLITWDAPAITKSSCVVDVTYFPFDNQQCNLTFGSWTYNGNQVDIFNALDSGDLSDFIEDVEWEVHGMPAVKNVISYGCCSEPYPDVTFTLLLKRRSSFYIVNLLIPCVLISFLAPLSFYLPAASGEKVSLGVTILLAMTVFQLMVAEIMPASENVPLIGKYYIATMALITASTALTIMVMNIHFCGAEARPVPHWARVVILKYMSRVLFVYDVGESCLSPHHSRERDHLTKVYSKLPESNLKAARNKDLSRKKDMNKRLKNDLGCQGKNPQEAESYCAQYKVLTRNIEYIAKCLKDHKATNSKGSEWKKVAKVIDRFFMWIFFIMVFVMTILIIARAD
T1 sequence (Q9GZZ6 25-450): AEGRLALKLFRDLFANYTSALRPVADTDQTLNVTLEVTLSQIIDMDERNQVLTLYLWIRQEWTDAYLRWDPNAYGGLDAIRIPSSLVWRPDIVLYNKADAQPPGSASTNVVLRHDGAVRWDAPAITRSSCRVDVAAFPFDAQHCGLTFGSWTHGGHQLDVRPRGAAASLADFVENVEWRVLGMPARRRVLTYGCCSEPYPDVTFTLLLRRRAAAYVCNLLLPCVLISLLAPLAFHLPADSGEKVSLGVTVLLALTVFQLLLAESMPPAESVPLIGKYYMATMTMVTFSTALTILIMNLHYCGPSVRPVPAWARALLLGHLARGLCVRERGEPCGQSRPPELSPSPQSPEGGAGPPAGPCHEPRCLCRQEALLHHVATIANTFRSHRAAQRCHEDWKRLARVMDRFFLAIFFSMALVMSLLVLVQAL

B1: TMEM100: Transmembrane protein 100, SEQ ID NO: 9, co-transfected cDNA clone (protein, listed as Homo sapiens)
chain: MTEEPIKEILGAPKAHMAATMEKSPKSEVVITTVPLVSEIQLMAATGGTELSCYRCIIPFAVVVFIAGIVVTAVAYSFNSHGSIISIFGLVVLSSGLFLLASSALCWKVRQRSKKAKRRESQTALVANQRSLFA
B1: the “functional expression of co-transfected α9α10 nAChR in cDNA library screen” value is listed as “enabled functional expression”. For the same molecule, the “FLIPR Response (Fold/Baseline)” value under setting [1] came out at 3.0 Fold/Baseline. For the same molecule, the “FLIPR Response (Fold/Baseline)” value under setting [2] is 0.6 Fold/Baseline.

B2: TMEM132E: Transmembrane protein 132E, SEQ ID NO: 8, co-transfected cDNA clone (protein, listed as Homo sapiens)
chain: MAPGMSGRGGAALLCLSALLAHASGRSHPASPSPPGPQASPVLPVSYRLSHTRLAFFLREARPPSPAVANSSLQRSEPFVVFQTKELPVLNVSLGPFSTSQVVARELLQPSSTLDIPERLTVNWKVRAFIVRSHVPASQPVVQVLFYVAGRDWDDFGVTERLPCVRLHAFRDAREVKSSCRLSGGLATCLVRAELPLAWFGPPAPAAPPTARRKSPDGLEPEATGESQQAELYYTLHAPDASGGCGGSRRGAGPGVGARAESPTQHPLLRIGSISLFRPPPRRTLQEHRLDSNLMIRLPDRPLKPGEVLSILLYLAPNSSSPSSPSVEHFTLRVKAKKGVTLLGTKSRSGQWHVTSELLTGAKHSTATVDVAWAQSTPLPPREGQGPLEILQLDFEMENFTSQSVKRRIMWHIDYRGHGALPDLERAVTELTVIQRDVQAILPLAMDTEIINTAILTGRTVAIPVKVIAIEVNGLVLDISALVECESDNEDIIKVSSSCDYVFVSGKESRGSMNARVTFRYDVLNAPLEMTVWVPKLPLHIELSDARLSQVKGWRVPILPDRRSVRESEDEDEEEEERRQSASRGCTLQYQHATLQVFTQFHTTSSEGTDQVVTMLGPDWLVEVTDLVSDFMRVGDPRVAHMVDSSTLAGLEPGTTPFKVVSPLTEAVLGETLLTVTEEKVSITQLQAQVVASLALSLRPSPGSSHTILATTAAQQTLSFLKQEALLSLWLSYSDGTTAPLSLYSPRDYGLLVSSLDEHVATVTQDRAFPLVVAEAEGSGELLRAELTIAESCQKTKRKSVLATTPVGLRVHFGRDEEDPTYDYPGPSQPGPGGGEDEARGAGPPGSALPAPEAPGPGTASPVVPPTEDFLPLPTGFLQVPRGLTDLEIGMYALLGVFCLAILVFLINCIVFVLRYRHKRIPPEGQTSMDHSHHWVFLGNGQPLRVQGELSPPAGNPLETVPAFCHGDHHSSGSSQTSVQSQVHGRGDGSSGGSARDQAEDPASSPTSKRKRVKFTTFTTLPSEELAYDSVPAGEEDEEEEEDLGWGCPDVAGPTRPTAPPDLHNYMRRIKEIA
B2: the “functional expression of co-transfected α9α10 nAChR in cDNA library screen” value was “enabled functional expression”. Besides, under setting [1], the “FLIPR Response (Fold/Baseline)” value worked out at 2.6 Fold/Baseline. Besides, the “FLIPR Response (Fold/Baseline)” value under setting [2] came out at 0.7 Fold/Baseline.

The values above are taken from US12227771B2, “Expression systems and methods of use thereof” (Janssen Pharmaceutica NV, priority 2019, dated 2025).
